Data on one molecule can be found in patent US20240343811A1 (SHANDONG SIMCERE BIOPHARMACUTICAL, published 2024).

The target in experiment [1] is T1, human CD16a (158F), full length, on FlpinCHO cells (human, UniProt P08637 17-254). The experiment can be described thus: FACS on FlpinCHO cells; no human immunoglobulin; unlabeled antibody, second batch of Table 10. The procedure: (§1) The required cells were scale-up cultured in a T-75 cell culture flask to the logarithmic growth phase. The medium was aspirated, and the cells were washed twice with a PBS buffer and then digested with trypsin. After the digestion was terminated, the cells were washed twice with the PBS buffer. The cells were counted, and then the cell pellet was resuspended with a [PBS+2% (w/w) BSA] blocking solution to 2×10⁶ cells/ml, and added to a 96-well FACS reaction plate at 50 μl/well. […] 50 μl/well of the antibody to be detected was added at different concentrations, and incubated on ice for 1 hour. […] The mixture was centrifuged and washed 5 times with PBS, and FACS (FACS Canto II, purchased from BD Company) was used for detection and result analysis. Data analysis was performed by software (CellQuest) to obtain the mean fluorescence intensity (MFI) of the cells. Then, software (GraphPad Prism8) was used for analysis, data fitting and EC50 value calculation.

For experiment [2], the target named is T2, human CD16a (158V), full length, on cells (human, UniProt P08637 17-254).
T2 construct: also used as target for the bought Jurkat-NFAT reporter line stably expressing human CD16a (158V); also called FlpinCHO-human CD16a (158V); FlpinCHO-CD16a (158V)
The description is as above. The procedure:
as §1

Experiment [3] concerns the target T3, cynomolgus monkey CD16, full length, on FlpinCHO cells (cynomolgus monkey, UniProt Q8SPW2 17-254).
T3 construct: also called FlpinCHO-cyno CD16; Flipin CHO-cyno CD16
Briefly: FACS on FlpinCHO cells. The method in brief: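 FlpinCHO cells expressing full-length cynomolgus CD16, blocked in PBS/2% BSA at 2×10⁶ cells/ml, incubated with antibody at various concentrations 1 h on ice. Flow cytometry MFI fitted to give EC50.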

For experiment [4], the target named is T2, human CD16a (158V), full length, on …. Briefly: cell-based or functional assay.
Experiment [5] shares this target. The experiment can be described thus: FACS, biotinylated antibody; biotinylated antibody, no human immunoglobulin; first batch of Table 11-1. The procedure: as §1, with “The” for “The required cells were scale-up cultured in a T-75 cell culture flask to the logarithmic growth phase. The”
(§2) An antibody to be detected was labeled in advance according to the instructions of a biotin labeling kit (EZ-Link™ NHS-PEG4 Biotinylation Kit, purchased from Thermofisher Scientific, catalog number: 21455). […] Detection was performed according to the method of Example 3.1, wherein the biotinylated antibody was detected with fluorescein APC-labeled Streptavidin (High Concentration) (purchased from Biolegend, catalog number: 405243).
For orientation: Flow cytometry measures light scatter and fluorescence of single cells or particles in a stream.

Experiment [6] addresses T1, human CD16a (158F), full length, on …. Briefly: FACS, biotinylated antibody; biotinylated antibody, no human immunoglobulin; first batch of Table 12-2. The procedure: as §1, with “The” for “The required cells were scale-up cultured in a T-75 cell culture flask to the logarithmic growth phase. The”
as §2

The target is the same in experiment [7]. The experiment can be described thus: FACS on FlpinCHO cells; no human immunoglobulin; unlabeled antibody, first batch of Table 10. The procedure:
as §1

In experiment [8] the target is T2, human CD16a (158V), full length, on …. The experiment is described as above. The procedure:
as §1

In experiment [9] the target is T4, human CD16b (NA1), full length, on FlpinCHO cells (human, UniProt O75015 17-200).
T4 construct: also called FlpinCHO-human CD16b (NA1)
T4 chain: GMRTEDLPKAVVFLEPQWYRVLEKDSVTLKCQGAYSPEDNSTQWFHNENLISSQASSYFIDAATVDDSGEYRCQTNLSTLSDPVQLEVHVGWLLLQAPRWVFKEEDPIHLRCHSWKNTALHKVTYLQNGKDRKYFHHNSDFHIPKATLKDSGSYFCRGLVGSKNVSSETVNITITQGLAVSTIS
The experiment can be described thus: FACS on FlpinCHO cells. An outline of the steps: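 Trypsin-detached FlpinCHO cells expressing full-length CD16b were blocked in PBS+2% BSA and incubated on ice for 1 hour with antibody at varying concentrations. Binding read by flow cytometry as MFI; EC50 from curve fitting.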

Experiment [10] deals with T5, CD16 on primary human NK cells (human, UniProt P08637 17-254).
T5 construct: whole, on cells; also called resting NK cells
The experiment can be described thus: FACS on human NK cells, biotinylated antibody; NK cells, no human immunoglobulin; Table 15.

Experiment [11] has as its target T1, human CD16a (158F), full length, on …. The experiment can be described thus: FACS, biotinylated antibody.
The target in experiment [12] is T2, human CD16a (158V), full length, on …. The experiment can be described thus: FACS, biotinylated antibody.
Experiment [13] concerns the target T5, CD16 on primary human NK cells. The experiment can be described thus: FACS on human NK cells, biotinylated antibody; NK cells, no human immunoglobulin; Table 29 (later experiment).

Several values for one entry are separate records, joined by “and”; a condition that tells them apart may be missing. Equal values may be shown once.

T3 sequence (Q8SPW2 other isoform, or with tags, fused parts or gaps limits assumed): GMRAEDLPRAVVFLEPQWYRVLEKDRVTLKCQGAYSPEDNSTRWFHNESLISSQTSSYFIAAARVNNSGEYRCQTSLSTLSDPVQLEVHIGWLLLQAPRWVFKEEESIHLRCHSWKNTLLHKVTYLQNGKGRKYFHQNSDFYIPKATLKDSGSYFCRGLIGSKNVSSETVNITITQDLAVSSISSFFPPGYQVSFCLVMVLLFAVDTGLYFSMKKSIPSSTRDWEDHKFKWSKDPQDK

B1: 3G8 scFv-hFc (Fc fusion)
chain: DTVLTQSPASLAVSLGQRATISCKASQSVDFDGDSFMNWYQQKPGQPPKLLIYTTSNLESGIPARFSASGSGTDFTLNIHPVEEEDTATYYCQQSNEDPYTFGGGTKLEIKGGGGSGGGGSGGGGSQVTLKESGPGILQPSQTLSLTCSFSGFSLRTSGMGVGWIRQPSGKGLEWLAHIWWDDDKRYNPALKSRLTISKDTSSNQVFLKIASVDTADTATYYCAQINPAWFAYWGQGTLVTVSAEPKSSDKTHTCPPCPAPEEFGGPSVFLFPPKPKDTLMISRTPEVTCVVVAVSHEDPEVKFNWYVDGVEVHNAKTKPREEQYNSTYRVVSVLTVLHQDWLNGKEYKCKVSNKALPAPIEKTISKAKGQPREPQVYTLPPSREEMTKNQVSLTCLVKGFYPSDIAVEWESNGQPENNYKTTPPVLDSDGSFFLYSKLTVDKSRWQQGNVFSCSVMHEALHNHYTQKSLSLSPGK
notes: also called control antibody 3G8
Broadly, the EC50 is the midpoint of the concentration-response curve. Consider B1, for which the EC50 in experiment [1] was 1.63 nM; in [2], 1.13 nM; in [3], 2.92 nM; in [5], 0.7 nM; in [6], 1.73 nM; in [7], around 0.82 nM. Also, the 50% effective concentration (EC50) in [8] is 0.56 nM; in experiment [9], 1.22 nM and 2.13 nM; in [10] it was 1.99 nM; in [11], 3.43 nM; in experiment [12] it was 0.99 nM; in [13], 4.45 nM. Moreover, the “Maximum mean fluorescence intensity” value in experiment [3] came to 22300; in experiment [11] it was 2010; in experiment [12] it was 7520. The “EC50, activation activity for Jurkat cell” value in experiment [4] came out at 0.03 nM. In experiment [4], this molecule came in with a Maximum fluorescence value of 153000.
